Target: FLAG-tagged USF-1 (wild type, overexpressed in cells) (UniProt P22415)
Assay: cell-based or functional assay

Chain of UniProt P22415 (P22415 whole entry): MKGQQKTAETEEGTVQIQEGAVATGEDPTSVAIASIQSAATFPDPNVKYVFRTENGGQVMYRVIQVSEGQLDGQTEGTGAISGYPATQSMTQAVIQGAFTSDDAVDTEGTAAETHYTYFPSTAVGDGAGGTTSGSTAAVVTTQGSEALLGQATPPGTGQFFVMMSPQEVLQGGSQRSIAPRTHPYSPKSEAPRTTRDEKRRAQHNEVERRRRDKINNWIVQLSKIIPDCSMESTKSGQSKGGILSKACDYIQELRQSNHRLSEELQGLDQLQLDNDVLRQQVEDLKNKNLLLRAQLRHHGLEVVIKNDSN

| FAS promoter activity (-444 FAS-Luc reporter) | Substance |
| --- | --- |
| 50 % decrease | HDAC9, overexpressed in cells (from UniProt Q9UKV0 1-1011) (enzyme) |
| 2 fold | P/CAF, overexpressed in cells (from UniProt Q92831 1-832) (enzyme) |
